{"source": "paper PMC3763537", "key": {"[1]": {"target": "NprR(ΔHTH) (B. thuringiensis strain 407)", "assay": "dynamic light scattering"}, "[2]": {"target": "NprR(ΔHTH) (B. thuringiensis strain 407)", "assay": "SEC"}, "[3]": {"target": "NprR(ΔHTH) (B. thuringiensis strain 407)", "assay": "dynamic light scattering", "remark": "listed apart in the source"}, "[4]": {"target": "NprR(ΔHTH) (B. thuringiensis strain 407)", "assay": "SEC-MALS"}, "[5]": {"target": "NprR(ΔHTH) (B. thuringiensis strain 407)", "assay": "SEC", "remark": "listed apart in the source"}, "[6]": {"target": "NprR(ΔHTH) (B. thuringiensis strain 407)", "assay": "crystal structure"}, "[7]": {"target": "NprR(ΔHTH)(Y223A/F225A) (B. thuringiensis strain 407)", "assay": "SEC"}, "[8]": {"target": "NprR(ΔHTH) (B. thuringiensis strain 407)", "assay": "ITC"}, "[9]": {"target": "NprR(ΔHTH)(N407A/Y410A) (B. thuringiensis strain 407)", "assay": "ITC"}, "[10]": {"target": "NprR(ΔHTH)(R126A) (B. thuringiensis strain 407)", "assay": "ITC"}, "[11]": {"target": "NprR(ΔHTH)(Y223A/F225A) (B. thuringiensis strain 407)", "assay": "ITC"}, "[12]": {"target": "full-length NprR (B. thuringiensis strain 407)", "assay": "dynamic light scattering"}, "[13]": {"target": "full-length NprR (B. thuringiensis strain 407)", "assay": "SEC"}, "[14]": {"target": "full-length NprR (B. thuringiensis strain 407)", "assay": "dynamic light scattering", "remark": "listed apart in the source"}, "[15]": {"target": "full-length NprR (B. thuringiensis strain 407)", "assay": "SEC-MALS"}}, "data": [{"molecule": "NprR(ΔHTH) (domain or fragment)", "values": [{"measurement": "stoichiometry N", "setting": "[1]", "result": 2}, {"measurement": "stoichiometry N", "setting": "[2]", "result": 2}, {"measurement": "stoichiometry N", "setting": "[3]", "result": 4}, {"measurement": "stoichiometry N", "setting": "[4]", "result": 2}, {"measurement": "stoichiometry N", "setting": "[5]", "result": 2}, {"measurement": "stoichiometry N", "setting": "[6]", "result": 4}]}, {"molecule": "NprR(ΔHTH)(Y223A/F225A) (domain or fragment)", "values": [{"measurement": "stoichiometry N", "setting": "[7]", "result": 2}]}, {"molecule": "NprX7 heptapeptide SKPDIVG", "values": [{"measurement": "Kd", "setting": "[8]", "result": 100, "unit": "nM"}, {"measurement": "Kd", "setting": "[9]", "result": 100, "unit": "nM"}, {"measurement": "Kd", "setting": "[10]", "result": 640, "unit": "nM"}, {"measurement": "Kd", "setting": "[11]", "result": 100, "unit": "nM"}]}, {"molecule": "NprX7 variant SKPDIVG-CO-NH (peptide)", "values": [{"measurement": "Kd", "setting": "[8]", "result": 5500, "unit": "nM"}]}, {"molecule": "full-length NprR (natural protein)", "values": [{"measurement": "stoichiometry N", "setting": "[12]", "result": 2}, {"measurement": "stoichiometry N", "setting": "[13]", "result": 2}, {"measurement": "stoichiometry N", "setting": "[14]", "result": 4}, {"measurement": "stoichiometry N", "setting": "[15]", "result": 2}]}, {"molecule": "WKPDTLG", "note": "[NprX7 peptide (WKPDTLG) characteristic of groups V to VII]", "values": [{"measurement": "Kd", "setting": "[8]", "result": 3000, "unit": "nM"}]}, {"molecule": "SRPDVLT", "note": "[NprX7-IV (SRPDVLT)]", "values": [{"measurement": "Kd", "setting": "[8]", "result": 6000, "unit": "nM"}]}, {"molecule": "SKPDIVGQ", "note": "[NprX8c SKPDIVGQ]", "values": [{"measurement": "Kd", "setting": "[8]", "result": 1000, "unit": "nM"}]}, {"molecule": "SKPDTYG", "note": "[NprX7-II (SKPDTYG)]", "values": [{"measurement": "Kd", "setting": "[8]", "result": 400, "unit": "nM"}]}, {"molecule": "YSSKPDIVG", "note": "[NprX9n …]", "values": [{"measurement": "Kd", "setting": "[8]", "result": 220, "unit": "nM"}]}, {"molecule": "SNPDIYG", "note": "[NprX7-III (SNPDIYG)]", "values": [{"measurement": "Kd", "setting": "[8]", "result": 80, "unit": "nM"}]}, {"molecule": "SSKPDIVG", "note": "[NprX8n octapeptide SSKPDIVG]", "values": [{"measurement": "Kd", "setting": "[8]", "result": 30, "unit": "nM"}]}]}
